Patent US20230348629A1 (BEIJING MABWORKS BIOTECH, published 2023)

T1: human VEGF-C-his molecules (Cat #:VEC-H4225, Acrobiosystems) (human, UniProt P49767 103-227, limits assumed)
T1 construct: Bought protein; not shown: his tag
T1 sequence (looked up): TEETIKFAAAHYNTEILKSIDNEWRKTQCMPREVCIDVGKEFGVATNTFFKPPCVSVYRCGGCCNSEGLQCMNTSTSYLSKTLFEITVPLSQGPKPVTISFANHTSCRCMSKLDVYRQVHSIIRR

T2: human TIGIT on HEK293A/human TIGIT cells (human, UniProt Q495A1 22-244)
T2 sequence: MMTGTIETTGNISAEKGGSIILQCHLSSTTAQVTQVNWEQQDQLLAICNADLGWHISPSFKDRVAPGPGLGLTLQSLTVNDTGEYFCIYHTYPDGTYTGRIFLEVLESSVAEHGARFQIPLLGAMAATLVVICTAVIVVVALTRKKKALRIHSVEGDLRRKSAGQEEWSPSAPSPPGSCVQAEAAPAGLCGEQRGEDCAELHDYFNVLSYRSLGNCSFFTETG

T3: human TIGIT-his protein (Cat #:10917-H08H, Sino Biological) (human, UniProt Q495A1 22-141)
T3 construct: Bought soluble protein; also called TIGIT molecules; not shown: his tag
T3 sequence: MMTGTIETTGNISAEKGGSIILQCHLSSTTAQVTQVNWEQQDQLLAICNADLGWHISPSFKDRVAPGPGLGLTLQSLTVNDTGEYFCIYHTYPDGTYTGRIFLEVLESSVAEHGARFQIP

T4: TIGIT-mFc molecules (Cat #: 10917-H38H, Sino Biological) (UniProt Q495A1 22-141)
T4 construct: not shown: mFc (mouse Fc)
T4 sequence (looked up): T3 sequence

B1: bevacizumab (antibody, V domains shown)
VH: EVQLVESGGGLVQPGGSLRLSCAASGYTFTNYGMNWVRQAPGKGLEWVGWINTYTGEPTYAADFKRRFTFSLDTSKSTAYLQMNSLRAEDTAVYYCAKYPHYYGSSHWYFDVWGQGTLVTVSS
VL: DIQMTQSPSSLSASVGDRVTITCSASQDISNYLNWYQQKPGKAPKVLIYFTSSLHSGVPSRFSGSGSGTDFTLTISSLQPEDFATYYCQQYSTVPWTFGQGTKVEIKR
notes: also called Avastin bevacizumab
B2: 70E11VH2VL4 (antibody, human IgG1, kappa, V domains shown)
VH: QVQLVQSGAEVKKPGASVKVSCKASGYTFTSYNVHWVRQAPGQGLEWMGTIYPGNLATSYNQKFKGRVTLTADTSTSTVYMELSSLRSEDTAVYYCARSGTMDYWGQGTTVTVSS
VL: EIVLTQSPGTLSLSPGERATMTCRASSSISSTYLHWYQQKPGASPKLLIYNTQNLASGVPARFSGSGSGTSYTLTISRLEPEDFAVYYCQQFGGYPLITFGAGTKLELKR
notes: Humanized anti-TIGIT antibody, human IgG1 and kappa constant regions; also called anti-TIGIT antibody 70E11VH2VL4; monospecific anti-TIGIT antibody
B3: MBS310-6 (bispecific antibody, human IgG1, kappa)
heavy 1: not shown
heavy 2: not shown
light 1: not shown
light 2: EIVLTQSPGTLSLSPGERATMTCRASSSISSTYLHWYQQKPGASPKLLIYNTQNLASGVPARFSGSGSGTSYTLTISRLEPEDFAVYYCQQFGGYPLITFGAGTKLELKRTVAAPSVFIFPPSDEQLKSGTASVVCLLNNFYPREAKVQWKVDNALQSGNSQESVTEQDSKDSTYSLSSTLTLSKADYEKHKVYACEVTHQGLSSPVTKSFNRGEC
notes: two half antibodies (knob and hole) expressed in HEK-293F cells and assembled in vitro; also called asymmetrical anti-VEGF/TIGIT bispecific antibody; anti-TIGIT/VEGF bispecific antibody
B4: MBS310-4 (bispecific antibody, human IgG1, kappa)
heavy: not shown
light: B3 light 2
notes: also called symmetrical anti-VEGF/TIGIT bispecific antibody

Experiments:
[1] = target: T1, human VEGF-C-his molecules (Cat …); assay: ELISA, plate coated with human VEGF-C-his, antibody titrated (axis labelled MFI)
Protocol: (§1) Briefly, an ELISA plate was coated with 100 μl 500 ng/ml human VEGF-A molecules (Cat #:11066-HNAN, Sino Biological, CN), mouse VEGF-A molecules (Cat #:50159-MNAB, Sino Biological, CN), human VEGF-B-his molecules (Cat #:VE6-H5225, Acrobiosystems Co., CN) and human VEGF-C-his molecules (Cat #:VEC-H4225, Acrobiosystems Co., CN) respectively overnight at 4° C. […] The ELISA plate was added with freshly prepared Ultra-TMB (Cat #:555214, BD, USA), and left still for 5 min for color development. The absorbance was read at 450 nm using SpectraMax® i3X microplate reader.

[2] = target: T2, human TIGIT on HEK293A/human TIGIT cells; assay: cell-based or functional assay
[3] = target: T2, human TIGIT on HEK293A/human TIGIT cells; assay: FACS on HEK293A/human TIGIT cells, antibody titrated, MFI
Protocol: (§2) Briefly, 10⁵ HEK293A cells in 100 μl cell culture medium were seeded onto a 96-well plate, which was later added with 50 μl serially diluted bispecific antibodies of the disclosure. After incubation at 4° C. for 1 h, the plate was washed with PBS for three times, added with APC-goat-anti-mouse IgG (1:500, Cat #: 405308, BioLegend, USA). After incubation at 4° C. for 1 h, the plate was washed with PBS for three times, and measured for fluorescence using a cytometry (BD).

[4] = target: T5, monkey TIGIT on HEK293A/monkey TIGIT cells (monkey); assay: FACS on HEK293A/monkey TIGIT cells, antibody titrated, MFI
T5 construct: also called cell surface monkey TIGIT
T5 sequence (chain, as listed by the source limits assumed): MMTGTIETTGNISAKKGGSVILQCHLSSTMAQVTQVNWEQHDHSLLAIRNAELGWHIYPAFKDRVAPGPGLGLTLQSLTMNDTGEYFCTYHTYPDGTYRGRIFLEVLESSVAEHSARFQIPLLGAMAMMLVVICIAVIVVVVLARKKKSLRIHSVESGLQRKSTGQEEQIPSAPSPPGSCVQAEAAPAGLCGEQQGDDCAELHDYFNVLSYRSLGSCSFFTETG
Protocol: as §2

[5] = target: T3, human TIGIT-his protein (Cat …); assay: SPR (BIAcore 8K), human TIGIT-his coupled to the chip, antibody injected
Description: (§3) Using BIAcore™ 8K instrument (GE Life Sciences, US), the binding affinity of the bispecific molecules of the disclosure to human TIGIT and VEGF was quantitatively measured. Briefly, 100-200 response units (RU) of human TIGIT-his protein (Cat #:10917-H08H, Sino Biological, CN) or human VEGF-A (Cat #:11066-HNAN, Sino Biological, CN) were coupled to CMS biosensor chips (Cat #:BR-1005-30, GE Life Sciences, US). The un-reacted groups were then blocked with 1M ethanolamine Serially diluted antibodies at concentrations ranging from 0.3 μM to 10 μM were injected into the SPR running buffer (HBS-EP buffer, pH7.4, Cat #:BR-1006-69, GE Life Sciences, US) at 30 μL/min. The binding affinity was calculated with the RUs of blank controls subtracted, and the association rate (kₐ) and dissociation rate (kd) were determined using the one-to-one Langmuir binding model (BIA Evaluation Software, GE Life Sciences, US). The equilibrium dissociation constant KD was calculated as the kd/kₐ ratio.

[6] = target: T4, TIGIT-mFc molecules (Cat #: 10917-H38H, …); assay: FACS blocking assay: antibody titrated and premixed with 5 ug/ml TIGIT-mFc, binding of TIGIT-mFc to human PVR on A549/human PVR cells
Protocol: After incubation at 4° C. for 1 h, the plate was washed with PBS for three times, and then added with PE-goat-anti-mouse IgG (1:500, Cat #:31861, Thermofisher, USA). After incubation at 4° C. for 1 h, the plate was washed with PBS for three times, and measured for fluorescence using a cytometry (BD).

[7] = target: T6, human VEGF-A molecules (Cat #:11066-HNAN, Sino Biological) (human, UniProt P15692-4 27-191); assay: SPR (BIAcore 8K), human VEGF-A coupled to the chip, antibody injected
T6 construct: Bought protein; also called human/monkey VEGF; VEGF molecules
T6 sequence (P15692 other isoform, or with tags, fused parts or gaps limits assumed): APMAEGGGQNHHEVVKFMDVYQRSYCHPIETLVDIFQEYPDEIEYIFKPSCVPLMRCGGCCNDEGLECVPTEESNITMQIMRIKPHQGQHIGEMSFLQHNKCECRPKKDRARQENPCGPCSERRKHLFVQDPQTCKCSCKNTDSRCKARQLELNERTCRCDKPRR
Description: as §3

[8] = target: T6, human VEGF-A molecules (Cat …); assay: ELISA, plate coated with human VEGF-A, antibody titrated, OD450
Protocol: as §1

[9] = target: T2, human TIGIT on HEK293A/human TIGIT cells; assay: FACS on HEK293A/human TIGIT cells, antibody titrated, no free VEGF-A
Protocol: as §2, with “of the disclosure and 50 μl free human VEGF-A molecules at the final concentration of 0 ng/ml, 50 ng/ml or 50 μg/ml (Cat #:11066-HNAN, Sino Biological, CN). After incubation” for “of the disclosure. After incubation”, “three times, and added with” for “three times, added with”

[10] = target: T2, human TIGIT on HEK293A/human TIGIT cells; assay: as above; remark: listed apart in the source
Protocol: as §2, with “of the disclosure and 50 μl free human VEGF-A molecules at the final concentration of 0 ng/ml, 50 ng/ml or 50 μg/ml (Cat #:11066-HNAN, Sino Biological, CN). After incubation” for “of the disclosure. After incubation”, “three times, and added with” for “three times, added with”

[11] = target: T2, human TIGIT on HEK293A/human TIGIT cells; assay: FACS on HEK293A/human TIGIT cells, antibody titrated in the presence of 50 ng/ml free human VEGF-A
Protocol: as §2, with “of the disclosure and 50 μl free human VEGF-A molecules at the final concentration of 0 ng/ml, 50 ng/ml or 50 μg/ml (Cat #:11066-HNAN, Sino Biological, CN). After incubation” for “of the disclosure. After incubation”, “three times, and added with” for “three times, added with”

[12] = target: T2, human TIGIT on HEK293A/human TIGIT cells; assay: FACS on HEK293A/human TIGIT cells, antibody titrated in the presence of 50 ug/ml free human VEGF-A
Protocol: as §2, with “of the disclosure and 50 μl free human VEGF-A molecules at the final concentration of 0 ng/ml, 50 ng/ml or 50 μg/ml (Cat #:11066-HNAN, Sino Biological, CN). After incubation” for “of the disclosure. After incubation”, “three times, and added with” for “three times, added with”

Binder | binding result [1] | EC50, NK92 (NK92MI-CD16a) cell-mediated ADCC, LDH release [2] [pM] | EC50, PBMC-mediated ADCC, death rate of GFP+ cells by FACS [2] [pM] | EC50 (read off the curve) [3] [pM] | EC50 (read off the curve) [4] [pM] | Kd [5] [pM] | IC50 (read off the curve) [6] [pM] | Kd [7] [pM] | EC50 (read off the curve) [8] [pM] | EC50 (read off the curve) [9] [pM] | EC50 (read off the curve) [10] [pM] | EC50 (read off the curve) [11] [pM] | EC50 (read off the curve) [12] [pM] | binding result [8]
B1 | no binding (tested: about 100 nM (LOG.Con about 2)) | – | – | – | – | – | – | – | – | – | – | – | – | –
B2 | – | 142 | 162 | ~400 | ~200 | 8050 | ~2000 | – | – | – | – | – | – | –
B3 | no binding (tested: about 100 nM (LOG.Con about 2)) | 268 | 183 | ~800 | ~1000 | 12800 | ~4000 | 166 | ~600 | ~1000 | ~900 | ~1000 | ~800 | –
B4 | – | – | – | – | – | – | – | – | – | – | – | – | – | binds
